Test results from US20220041686A1 (Stanford University, published 2022).

Assays:
Assay in all cases: quantification of the flow cytometry plots of panel A (B7H3 Fc staining, CAR MFI), with or without 3 µM grazoprevir [Cont.) B]
065 = biological target: T1, 065
T1 construct: Construct named only by number on the sheets; also called B7H3-cis SNIP scFv CAR with cleavage site 065

[1] = biological target: T2, B7H3-SNIP-scFv CAR (extracellular; cis)
T2 construct: Only the full-length (uncleaved) CAR carries the scFv and is stained by B7H3 Fc; also called B7H3-cis SNIP scFv; B7H3-cis SNIP scFv CAR

066 = biological target: T3, 066
T3 construct: Construct named only by number on the sheets; also called B7H3-cis SNIP scFv CAR with cleavage site 066

B1: B7H3-Fc (Fc fusion)
chain: LEVQVPEDPVVALVGTDATLCCSFSPEPGFSLAQLNLIWQLTDTKQLVHSFAEGQDQGSAYANRTALFPDLLAQGNASLRLQRVRVADEGSFTCFVSIRDFGSAAVSLQVAAPYSKPSMTLEPNKDLRPGDTVTITCSSYQGYPEAEVFWQDGQGVPLTGNVTTSQMANEQGLFDVHSILRVVLGANGTYSCLVRNPVLQQDAHSSVTITPQRSPTGAVEVQVPEDPVVALVGTDATLRCSFSPEPGFSLAQLNLIWQLTDTKQLVHSFTEGRDQGSAYANRTALFPDLLAQGNASLRLQRVRVADEGSFTCFVSIRDFGSAAVSLQVAAPYSKPSMTLEPNKDLRPGDTVTITCSSYRGYPEAEVFWQDGQGVPLTGNVTTSQMANEQGLFDVHSVLRVVLGANGTYSCLVRNPVLQQDAHGSVTITGQPMT
notes: Staining reagent for flow cytometry; not shown: Fc part
065
  fold CAR MFI, + Drug over - Drug: 157 fold
[1]
  fold CAR MFI, + Drug over - Drug: 70 fold
066
  fold CAR MFI, + Drug over - Drug: 129 fold
